Experiment [1] addresses HLA-A3 molecule on the T2-A3 cell line. Briefly: T2-A3 MHC stabilisation, w6/32 indirect immunofluorescence, flow cytometry; peptide at 1 uM. (A flow cytometer gives signals particle by particle.)
The target is the same in experiment [2]. Briefly: T2-A3 MHC stabilisation, w6/32 indirect immunofluorescence, flow cytometry; peptide at 10 uM.
Experiment [3] shares this target. Kind of experiment: T2-A3 MHC stabilisation, w6/32 indirect immunofluorescence, flow cytometry; peptide at 100 uM.

For DFWSGYLEY [HLA-A3 (5-13) peptide, based on CDR-H3 positions 5-13 of 105AD7], the Expression of MHC (FR), fluorescence ratio in experiment [1] is 1.8; in experiment [2], 1.3; in experiment [3] it was 1.3.

Turning to VLYYDFWSGY [HLA-A3 (1-10) peptide, based on CDR-H3 positions 1-10 of 105AD7], the Expression of MHC (FR), fluorescence ratio is 1.2 in experiment [1], 1.8 in experiment [2] and 1.8 in experiment [3].

These data come from patent WO1997032021A1.
